IntAct's records for PubMed 16946707

B1: Dynamin-1 (Homo sapiens), Q05193 (parent)
chain: MGNRGMEDLIPLVNRLQDAFSAIGQNADLDLPQIAVVGGQSAGKSSVLENFVGRDFLPRGSGIVTRRPLVLQLVNATTEYAEFLHCKGKKFTDFEEVRLEIEAETDRVTGTNKGISPVPINLRVYSPHVLNLTLVDLPGMTKVPVGDQPPDIEFQIRDMLMQFVTKENCLILAVSPANSDLANSDALKVAKEVDPQGQRTIGVITKLDLMDEGTDARDVLENKLLPLRRGYIGVVNRSQKDIDGKKDITAALAAERKFFLSHPSYRHLADRMGTPYLQKVLNQQLTNHIRDTLPGLRNKLQSQLLSIEKEVEEYKNFRPDDPARKTKALLQMVQQFAVDFEKRIEGSGDQIDTYELSGGARINRIFHERFPFELVKMEFDEKELRREISYAIKNIHGIRTGLFTPDMAFETIVKKQVKKIREPCLKCVDMVISELISTVRQCTKKLQQYPRLREEMERIVTTHIREREGRTKEQVMLLIDIELAYMNTNHEDFIGFANAQQRSNQMNKKKTSGNQDEILVIRKGWLTINNIGIMKGGSKEYWFVLTAENLSWYKDDEEKEKKYMLSVDNLKLRDVEKGFMSSKHIFALFNTEQRNVYKDYRQLELACETQEEVDSWKASFLRAGVYPERVGDKEKASETEENGSDSFMHSMDPQLERQVETIRNLVDSYMAIVNKTVRDLMPKTIMHLMINNTKEFIFSELLANLYSCGDQNTLMEESAEQAQRRDEMLRMYHALKEALSIIGDINTTTVSTPMPPPVDDSWLQVQSVPAGRRSPTSSPTPQRRAPAVPPARPGSRGPAPGPPPAGSALGGAPPVPSRPGASPDPFGPPPQVPSRPNRAPPGVPSRSGQASPSRPESPRPPFDL
partner: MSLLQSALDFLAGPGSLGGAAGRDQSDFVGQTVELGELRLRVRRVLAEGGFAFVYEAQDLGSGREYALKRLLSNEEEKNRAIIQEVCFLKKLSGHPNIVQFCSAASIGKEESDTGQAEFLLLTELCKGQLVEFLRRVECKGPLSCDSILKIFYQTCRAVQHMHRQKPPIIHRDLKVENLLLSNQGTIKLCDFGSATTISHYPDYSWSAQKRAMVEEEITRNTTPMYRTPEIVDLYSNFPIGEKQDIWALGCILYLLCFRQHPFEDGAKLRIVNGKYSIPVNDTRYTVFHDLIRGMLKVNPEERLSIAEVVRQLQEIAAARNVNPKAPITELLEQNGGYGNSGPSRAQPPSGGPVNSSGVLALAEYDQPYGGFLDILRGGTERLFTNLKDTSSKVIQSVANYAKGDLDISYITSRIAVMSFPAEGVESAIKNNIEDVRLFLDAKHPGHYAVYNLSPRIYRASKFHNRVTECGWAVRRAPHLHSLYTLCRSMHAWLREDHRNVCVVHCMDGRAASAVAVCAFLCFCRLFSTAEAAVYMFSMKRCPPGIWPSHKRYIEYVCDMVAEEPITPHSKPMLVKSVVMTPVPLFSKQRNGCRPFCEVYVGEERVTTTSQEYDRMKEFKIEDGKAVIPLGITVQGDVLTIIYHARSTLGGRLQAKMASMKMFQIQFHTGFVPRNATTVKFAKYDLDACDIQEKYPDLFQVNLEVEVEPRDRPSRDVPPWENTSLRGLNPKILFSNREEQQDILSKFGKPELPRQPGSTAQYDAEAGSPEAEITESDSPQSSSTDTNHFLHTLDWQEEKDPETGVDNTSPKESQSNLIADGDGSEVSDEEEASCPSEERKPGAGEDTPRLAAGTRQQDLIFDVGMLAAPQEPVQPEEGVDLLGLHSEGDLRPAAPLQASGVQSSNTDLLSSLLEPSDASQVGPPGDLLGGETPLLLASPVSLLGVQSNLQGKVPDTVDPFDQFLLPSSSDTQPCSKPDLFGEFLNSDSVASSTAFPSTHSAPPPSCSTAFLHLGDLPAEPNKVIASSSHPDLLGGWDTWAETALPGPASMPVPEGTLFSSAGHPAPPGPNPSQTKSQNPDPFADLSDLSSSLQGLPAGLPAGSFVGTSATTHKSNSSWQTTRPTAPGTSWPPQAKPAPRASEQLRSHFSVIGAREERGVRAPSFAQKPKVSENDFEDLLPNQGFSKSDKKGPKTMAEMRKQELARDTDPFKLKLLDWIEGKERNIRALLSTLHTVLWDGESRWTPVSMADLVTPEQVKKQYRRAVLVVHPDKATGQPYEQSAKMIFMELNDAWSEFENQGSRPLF

Variants of: B1
Settings: with gak_rat Gak

Variant | effect of a mutation on the interaction
I690K | disrupting interaction
K694A | increasing interaction
